# Source: the supplement of paper PMC10724198
# ± gives the standard deviation of the averaged measurements.
# Columns and labels:
# Saccharomyces cerevisiae [1] = assay: protein stability index of tFT-peptide fusion (C-terminal peptide) (PSI (0-1 scale)); higher = more stable (slower turnover)
# Procedure: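 MPS profiling in S. cerevisiae of the tFT-X12 degron library: putative degron peptides plus stable controls, 12 aa, fused to the C-terminus of a sfGFP-mCherry timer. Cells are FACS-sorted into 8 mCherry/sfGFP bins and deep-sequenced. PSI runs from 0 (unstable) to 1 (stable). Backgrounds are wild type, das1Δ and doa10Δ at 30 °C, and wild type, das1Δ, cdc34-1 and cdc53-1 at 37 °C; 2-3 technical replicates each.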
# Saccharomyces cerevisiae [2] = assay: as above; conditions: genetic background: wild type; temperature: 30 C
# [3] = genetic background: cdc34-1, temperature: 37 C
# [4] = genetic background: cdc53-1, temperature: 37 C
# [5] = genetic background: das1 deletion, temperature: 30 C
# [6] = genetic background: das1 deletion, temperature: 37 C
# [7] = genetic background: doa10 deletion, temperature: 30 C
# [8] = genetic background: wild type, temperature: 30 C
# [9] = genetic background: wild type, temperature: 37 C
# 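Note: PSI is a weighted mean of sequencing reads over stability bins, variants kept only with over 10 reads, mCherry proximal and sfGFP distal, peptide attached via GGGS linker.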
Sequence,protein stability index (Saccharomyces cerevisiae [1]; [3]),protein stability index (Saccharomyces cerevisiae [1]; [4]),protein stability index (Saccharomyces cerevisiae [1]; [5]),protein stability index (Saccharomyces cerevisiae [1]; [6]),protein stability index (Saccharomyces cerevisiae [1]; [7]),protein stability index (Saccharomyces cerevisiae [1]; [8]),protein stability index (Saccharomyces cerevisiae [1]; [9]),protein stability index (Saccharomyces cerevisiae [2])
KLLLTCTFLVFP,0.448 ± 0.022,0.545 ± 0.024,0.37 ± 0.032,0.555 ± 0.011,0.3361 ± 0.003,0.369 ± 0.02,0.523 ± 0.018,0.435 ± 0.0062
ERGSLPRIHHLI,0.6542 ± 0.0035,0.754 ± 0.017,0.688 ± 0.085,0.736 ± 0.011,0.127 ± 0.012,0.168 ± 0.034,0.31 ± 0.02,0.257 ± 0.0082
LAFAGRCGLYVC,0.57 ± 0.064,0.679 ± 0.016,0.583 ± 0.026,0.693 ± 0.0075,0.289 ± 0.0035,0.291 ± 0.021,0.452 ± 0.0079,0.362 ± 0.053
ISLVLVVIEVQR,0.0774 ± 0.045,0.285 ± 0.042,0.166 ± 0.042,0.316 ± 0.017,0.135 ± 0.0075,0.143 ± 0.024,0.249 ± 0.03,0.209 ± 0.027
RHCCIVPLCRVR,0.491 ± 0.061,0.512 ± 0.013,0.324 ± 0.028,0.555 ± 0.028,0.285 ± 0.013,0.321 ± 0.028,0.507 ± 0.0081,0.464 ± 0.045
FGVFLLWCVLLL,0.226 ± 0.0076,0.297 ± 0.017,0.213 ± 0.023,0.339 ± 0.013,0.217 ± 0.01,0.191 ± 0.013,0.352 ± 0.075,0.274 ± 0.077
SIFSIFFLVRNF,0.4535 ± 0.0038,0.551 ± 0.029,0.436 ± 0.037,0.59 ± 0.023,0.117 ± 0.0077,0.12 ± 0.039,0.195 ± 0.028,0.217 ± 0.0043
SGGRFVLFIIAV,0.444 ± 0.012,0.538 ± 0.048,0.376 ± 0.031,0.582 ± 0.013,0.344 ± 0.022,0.37 ± 0.023,0.535 ± 0.0051,0.42491 ± 0.00036
SKPFPRHIFSLH,0.674 ± 0.022,0.737 ± 0.027,0.663 ± 0.026,0.7348 ± 0.0039,0.481 ± 0.03,0.4981 ± 0.0046,0.644 ± 0.012,0.503 ± 0.046
VLFVLFASWFPR,0.453 ± 0.023,0.4772 ± 0.002,0.375 ± 0.027,0.5458 ± 0.0053,0.3679 ± 0.0025,0.361 ± 0.024,0.529 ± 0.047,0.487 ± 0.0066
FLLHLVAHFSFL,0.544 ± 0.014,0.571 ± 0.0063,0.517 ± 0.0071,0.531 ± 0.0066,0.473 ± 0.027,0.472 ± 0.017,0.503 ± 0.003,0.527 ± 0.044
CTWGRYGGIWLR,0.0548 ± 0.007,0.0483 ± 0.033,0.136 ± 0.062,0.144 ± 0.013,0.668 ± 0.034,0.117 ± 0.023,0.11 ± 0.016,0.254 ± 0.058
FSARPFLYSFRP,0.694 ± 0.024,0.743 ± 0.0082,0.667 ± 0.025,0.7416 ± 0.0052,0.653 ± 0.037,0.654 ± 0.0083,0.711 ± 0.0089,0.028 ± 0.0092
GGCILYFCMSIV,0.411 ± 0.021,0.492 ± 0.0065,0.387 ± 0.029,0.505 ± 0.011,0.371 ± 0.0097,0.374 ± 0.0063,0.472 ± 0.026,0.4 ± 0.026
CVFCLTVFVRFL,0.197 ± 0.0067,0.26 ± 0.018,0.192 ± 0.028,0.346 ± 0.015,0.128 ± 0.014,0.151 ± 0.022,0.2572 ± 0.0012,0.243 ± 0.011
PLFVLTILLFLC,0.165 ± 0.042,0.314 ± 0.036,0.258 ± 0.051,0.367 ± 0.017,0.156 ± 0.0098,0.137 ± 0.013,0.179 ± 0.0024,0.1706 ± 0.00068
LFRLPSPLLFFL,0.559 ± 0.0067,0.611 ± 0.029,0.558 ± 0.025,0.6643 ± 0.0018,0.4911 ± 0.0026,0.429 ± 0.025,0.53 ± 0.016,0.484 ± 0.028
QHIDTLAKTHIT,0.73 ± 0.036,0.74493 ± 0.00055,0.632 ± 0.008,0.7219 ± 0.005,0.605 ± 0.03,0.634 ± 0.033,0.7 ± 0.012,0.606 ± 0.15
SVTFVVYFISGG,0.522 ± 0.025,0.608 ± 0.023,0.409 ± 0.022,0.578 ± 0.028,0.426 ± 0.048,0.421 ± 0.022,0.548 ± 0.0076,0.513 ± 0.039
AVVLLFIPRKLL,0.472 ± 0.042,0.53 ± 0.034,0.39 ± 0.029,0.568 ± 0.014,0.148 ± 0.011,0.173 ± 0.021,0.293 ± 0.015,0.245 ± 0.079
